The values that follow are results of earlier work, collected in patent US20030232389A1, “Urokinase peptide structure mimetics” (priority 2000, published 2003).

Positions of bridges follow the written chain, without caps; N, C: chain ends. Non-standard residues stand in square brackets, D forms with d. No end group written: not given here.

The data set concerns the target uPAR (uPA receptor) (Homo sapiens, UniProt Q03405). The following applies: cyclic disulfide peptide mimicking loop B of the uPA growth factor domain; value from German patent application 199 33 701.2.

uPAR (uPA receptor), sequence (Q03405 23-305): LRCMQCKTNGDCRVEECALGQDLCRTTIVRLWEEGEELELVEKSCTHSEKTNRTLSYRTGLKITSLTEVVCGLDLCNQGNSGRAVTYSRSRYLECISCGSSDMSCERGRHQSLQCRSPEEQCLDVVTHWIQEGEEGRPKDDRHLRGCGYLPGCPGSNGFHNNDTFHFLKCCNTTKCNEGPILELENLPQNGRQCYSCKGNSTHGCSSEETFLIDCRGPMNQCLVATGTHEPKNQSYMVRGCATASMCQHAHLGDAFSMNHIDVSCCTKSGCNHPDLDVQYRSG

With “cyclo[1,9] D-Cys-Asn-Lys-Tyr-Phe-Ser-Asn-Ile-Cys-Trp ([dC]NKYFSNICW; disulfide 1-9) [cyclo[21,29][D-Cys21Cys29]-uPA21-30]”, the IC50 is 78 nM.
